Test results as given in patent US9074002B2, “PTP1B inhibitors” (Cold Spring Harbor Laboratory, priority 2009, dated 2015).

T1: PTP1B-OX (Homo sapiens, UniProt P18031)
T1 construct: made in house; host or cells: E. coli BL21 (pET19b)
T1 sequence (P18031 3-277): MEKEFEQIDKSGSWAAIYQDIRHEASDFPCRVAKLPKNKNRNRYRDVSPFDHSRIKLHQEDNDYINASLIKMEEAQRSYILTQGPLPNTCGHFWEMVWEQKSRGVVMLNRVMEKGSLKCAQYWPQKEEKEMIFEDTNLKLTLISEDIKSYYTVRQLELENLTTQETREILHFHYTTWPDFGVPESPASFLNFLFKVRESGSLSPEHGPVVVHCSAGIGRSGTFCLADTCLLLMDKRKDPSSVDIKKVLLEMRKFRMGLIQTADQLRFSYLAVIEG

T2: PTP1B under reducing condition (Homo sapiens, UniProt P18031)
T2 construct: made in house; host or cells: E. coli BL21 (pET19b)
T2 sequence (P18031 3-277 limits assumed): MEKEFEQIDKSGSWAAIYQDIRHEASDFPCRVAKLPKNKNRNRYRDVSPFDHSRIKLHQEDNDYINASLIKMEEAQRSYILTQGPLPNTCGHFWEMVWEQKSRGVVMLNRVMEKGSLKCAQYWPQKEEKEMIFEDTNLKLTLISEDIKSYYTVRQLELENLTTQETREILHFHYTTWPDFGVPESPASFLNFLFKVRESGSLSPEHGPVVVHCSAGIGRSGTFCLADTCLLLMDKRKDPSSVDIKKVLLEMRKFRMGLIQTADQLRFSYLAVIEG

T3: endogenous PTP1B-OX (Homo sapiens, UniProt P18031)
T3 construct: endogenous in cells; host or cells: 293T cells (transfected only with the scFv intrabody)
T3 sequence (P18031 1-435): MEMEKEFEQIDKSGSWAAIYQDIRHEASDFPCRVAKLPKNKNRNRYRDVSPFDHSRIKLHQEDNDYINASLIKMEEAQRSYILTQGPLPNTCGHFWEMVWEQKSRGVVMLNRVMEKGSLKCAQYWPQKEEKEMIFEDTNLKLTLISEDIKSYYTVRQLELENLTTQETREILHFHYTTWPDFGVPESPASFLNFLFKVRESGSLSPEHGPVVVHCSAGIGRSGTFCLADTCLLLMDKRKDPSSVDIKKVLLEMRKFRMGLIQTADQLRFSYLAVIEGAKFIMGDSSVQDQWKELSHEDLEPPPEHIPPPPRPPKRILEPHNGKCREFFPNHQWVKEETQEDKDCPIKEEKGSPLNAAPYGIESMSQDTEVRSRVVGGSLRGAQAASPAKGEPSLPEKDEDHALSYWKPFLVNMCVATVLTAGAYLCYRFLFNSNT

B1: scFv24: scFv, SEQ ID NO: 57 (protein)
scFv: MKKTAIAIAVALAGFATVAQAAVSASPGDTVKITCSGGNSSYGYGWYQQKSPGSAPVSVIYYNDERPSDIPSRFSGSASGSTATLTITGVQADDEAVYYCGNADSSTYAGIFGAGTTLTVLGQSSRSSAVTLDESGGGLQTPGGGLSLVCKASGFDFSTNAMGWVRQAPGKGLEWVAGISGSGSSTWYATAVKGRATISRDNGQSTVRLQLNNLRAEDTGTYYCTKYVGDYYWYIDAGSIDAWGHGTEVIVSSTSGQAGQHHHHHHGAYPYDVPDYAS
B2: scFv61: scFv, SEQ ID NO: 94 and 164 (protein)
scFv: MKKTAIAIAVALAGFATVAQAALTQPSSVSANPGETVKITCSGGGSYAGSYYYGWYQQKAPGSAPVTLIYDNTNRPSNIPSRFSGSLSGSTGTLTITGVRAEDEAVYYCGSFDSSTDGGYAAIFGAGTTLTVLGQSSRSSAVTLDESGGGLQTPGGGLSLVCKASEFTFSSYAMEWVRQAPGKGLEWVAYINSDGSSTWYAPAVKGRATISRDNGQSTVRLQLNSLRAEDTATYYCTRGSGGENIDTWGHGTEVIVSSTSGQAGQHHHHHHGAYPYDVPDYAS
B3: scFv118: scFv, SEQ ID NO: 142 and 166 (protein)
scFv: MKKTAIAIAVALAGFATVAQAALTQPSSVSANLGGTVEITCSGGSGSYGWYQQKSPGGAPVTVIYYNDKRPSDIPSRFSGSKSGSTATLTITGVQVEDEAVYYCGSYDSSYVGIFGVGTTLTVLGQSSRSSAVTLDESGGGLQTPRGALSLVCKASGFTFSSYSMAWVRQAPGKGLEFVAGIQNDGSITDYGSAVDGRATISRDDGQSTVRLQLNNLRTEDTATYYCAKTTVADGVIGAYGIDAWGHGTEVIVSSTSGQAGQHHHHHHGAYPYDVPDYAS
B4: scFv21: scFv, SEQ ID NO: 54 (protein)
scFv: MKKTAIAIAVALAGFATVAQAALTQPSSVSANPGGTVKITCSGSSGSYYGWYQQKSPGSAPVTVIYDNDKRPSDVPSRFSGSKSGPTATLTITGVQAEDEAVYFCGSRDNSYVGIFGAGTTLTVLGQSSRSSAVTLDESGGGLQTPGGALSLVCKASGFTFSSYDMFWVRQAPGKGLEFVAQINSAGSYTNYGSAVKGRATISRDDGQSTVRLQLNNLRAEDTGIYFCAKSASGYYYSGSDAGDIDAWGHGTEVIVSSTSGQAGQHHHHHHGAYPYDVPDYAS
B5: scFv28: scFv, truncated sequence, SEQ ID NO: 61 (protein)
scFv: MKKTAIAIAVALAGFATVAQAAVIYSNDERPSDIPSRFSGSTSGSTSTLTITGVQADDEAVYFCGSADSSTYAGIFGAGTTLTVLGQSSRSSAVTLDESGGGLQTPGGALSLVCKASGFTFSSFNMFWVRQAPGRGLEFVAGITSSGGSTYYGTAVKGRATISRDNGQSTVRMQLNNLRAEDTGTYFCARGAYDYYFYWNYAGTIDAWGHGTEVIVSSTSGQAGQHHHHHHGAYPYDVPDYAS
B6: scFv105: scFv, SEQ ID NO: 132 (protein)
scFv: MKKTAIAIAVALAGFATVAQAALTQPSSVSANPGEAVKITCSGSSGSYGWYQQKSPGSAPVTVIYYNDKRPSDIPSRFSGSTSGSTSTLTITGVQAEDEAVYFCGGYDSNYLGIFGAGTTLTVLGQSSRSSAVTLDESGGGLQTPRGALSLVCKASGFTFSSYSMAWVRQAPGKGLEFVAGIQNDGSITDYGSAVDGRATISRDDGQSTVRLQLNNLRTEDTATYYCAKTTVADGVIGAYGIDAWGHGTEVIVSSTSGQAGQHHHHHHGAYPYDVPDYAS
B7: scFv62: scFv, SEQ ID NO: 95 and 165 (protein)
scFv: MKKTAIAIAVALAGFATVAQAALTQPSSVSANPGGTVKITCSGSSSAYGYGWYQQKSPGSAPVTVIYNNNKRPSNIPSRFSGSKSGSTGTLTITGVQAEDEAVYFCGSEDSSTDAIFGAGTTLTVLGQSSRSSAVTLDESGGGLQTPGGALSLVCKASGFTFSSYDMGWVRQAPGKGLEYVAGITNDGRYASYGSAVDGRATISRDNGQSTVRLQLNNLRAEDTGTYYCARDDGSGWTGNTIDTWGHGTEVIVSSTSGQAGQHHHHHHGAYPYDVPDYAS

Experiments:
PTP1B-OX = molecular target: T1, PTP1B-OX; test: In vitro binding assay, purified recombinant PTP1B (37 kDa) and purified scFv, Ni-NTA pull down; conditions: purified proteins, scFv in molar excess, 2 hours at 4° C.; FIG. 9
Procedure: (§1) They established conditions in which PTP1B is reversibly oxidized by H2O2 in solution (FIG. 8). An artificial protein substrate RCML, in which tyrosine was phosphorylated with ^32P using recombinant GST-FER kinase was used in this assay to measure the phosphatase activity. Recombinant PTP (37 kDa) was incubated with increasing concentration (50 μM to 100 mM) of H2O2. A quick buffer exchange was done to remove the H2O2 and reducing agent (TCEP) was added to reactivate the enzyme.
(§2) In the in vitro binding assay, purified PTP was reversibly oxidized with […] followed by a quick buffer exchange to remove H2O2 (FIG. 8). Purified scFv was incubated in molar excess with PTP1B-OX or with PTP under reducing condition (with 2 mM TCEP) in binding buffer (20 mM HEPES, pH 7.4, 300 mM NaCl, 0.05% BSA, 0.05% Tween-20 and 10 mM imidazole) for 2 hours at 4° C. Ni-NTA agarose was added and incubated for one hour at 4° C. Protein complex bound to Ni-NTA agarose beads was pulled down and washed (three times, 5 minutes each, at 4° C.) with binding buffer containing 20 mM imidazole to reduce non-specific binding to the beads. The protein complex was eluted from the Ni-NTA agarose beads with 500 mM imidazole (in binding buffer, pH 7.4) for 15 minutes at 4° C. with gentle shaking. The complex was separated by SDS-PAGE and PTP1B was detected with anti-PTP1B antibody (FG6) and scFv was detected with anti-HA antibody [anti-HA (3F10)-HRP, Roche] by immunoblotting. Eight different scFvs (scFvs 20, 21, 24, 28, 45, 48, 57, and 105), expressed and purified from bacterial cultures were tested by this in vitro binding experiment.

[1] = molecular target: T2, PTP1B under reducing condition; test: In vitro binding assay, purified recombinant PTP1B (37 kDa) and purified scFv, Ni-NTA pull down, reducing condition; conditions: with 2 mM TCEP; FIG. 9
Procedure: as §1, §2

endogenous PTP1B-OX = molecular target: T3, endogenous PTP1B-OX; test: Intrabody interaction in 293T cells treated with H2O2 (Ni-NTA pull down / anti-PTP1B immunoprecipitation); type: cell-based; conditions: 1 mM H2O2 5 minutes, FIGS. 11, 12
Procedure: One of the positive candidate scFvs (scFv45) was cloned in pcDNA3.2/V5-GW/D-TOPO expression vector and transiently expressed in mammalian cells as stable intracellular antibody (aka intrabody) (FIG. 10). To detect PTP1B-OX and scFv45 interaction in mammalian cells, scFv45 was overexpressed in 293T cells as described herein (See Example 4) and 48 hours post transfection the cells were serum-starved for 16 hours in growth medium (DMEM, low glucose) without serum (FBS), then incubated with 1 mM H2O2 (in growth medium without serum) for 5 minutes at 37° C. or treated with 20 mM NAC (in growth medium without serum) for 1 hour at 37° C. Cells treated with H2O2 were washed twice with cold (4° C.) PBS and lysed in lysis buffer (25 mM HEPES, pH 7.4, 150 mM NaCl, 0.25% Deoxychloate, 1% TritonX-100, 25 mM NaF, 10 mM MgCl2, 1 mM EDTA, 10% Glycerol, 0.5 mM PMSF, 10 mM Benzamidine, protease inhibitor cocktail). Cells treated with NAC were lysed with lysis buffer containing 2 mM TCEP to ensure a post-lysis reducing environment. Interaction between PTP1B and intrabody45 were tested by pulling down the protein complex from 1 mg of total cell lysate with Ni-NTA agarose or by immunoprecipitating PTP with anti-PTP1B (FG6). For the pull down experiment, Ni-NTA agarose beads were incubated with the lysates (both oxidized and reduced) at 4° C. Protein complex bound to the Ni-NTA agarose beads was pulled down and washed three times; first with lysis buffer containing 20 mM imidazole followed by two more washes with wash buffer (PBS, pH 7.4, 20 mM imidazole, 0.05% BSA, 0.05% Tween-20 and protease inhibitors). Applicant used 20 mM imidazole in the wash buffer to reduce the non-specific binding of proteins with the Ni-NTA agarose beads. The complex was eluted with wash buffer containing 500 mM imidazole with gentle shaking at 4° C. and the eluate was mixed with SDS sample buffer with DTT. For the immunoprecipitation experiments, 1 mg of total cell lystates (both oxidized and reduced) was incubated with anti-PTP1B antibody (FG6) at 4° C. The interacting protein complex was immunoprecipitated after incubating the lysate-antibody mixture with protein A/G Sepharose at 4° C. After immunoprecipitation, Sepharose beads were washed three times; first with lysis buffer followed by two more washes with wash buffer (PBS, pH 7.4, 0.05% BSA, 0.05% Tween-20 and protease inhibitors). The Sepharose beads were then heated at 90° C. in 2×SDS sample buffer with DTT. Proteins from the pulled down or immunoprecipitated complex were separated by SDS-PAGE. PTP was detected with anti-PTP1B antibody (FG6) and the intrabodies were detected with anti-HA (3F10)-HRP antibody [anti-HA (3F10)-HRP, Roche] by immunoblotting.
In the initial in vitro phosphatase screening assay using reversibly oxidized (with H2O2) recombinant PTP1B, Applicant found four different PTP1B-OX specific scFvs (scFv45, scFv57, scFv64 and scFv106) from the initial pool of 12 different scFvs. […] Applicant has also shown that scFv45, expressed as an intrabody in mammalian cells, can bind to endogenous PTP1B-OX but not endogenous PTP under reducing conditions. Further assessment was carried out to identify additional PTP1B-OX-specific intrabodies. Additional scFvs have been subcloned in pcDNA3.2/V5-GW/D-TOPO mammalian expression vector (FIG. 10) from their respective phagemid constructs. After transient overexpression of these scFvs as intrabodies in 293T cells, the interaction between endogenous PTP1B and these intrabodies in both H2O2-treated cells and cells was observed under reducing condition (treated with NAC and lysed with lysis buffer containing TCEP). […] All can be used in the methods and compositions described herein. Additional scFvs, such as some or all of the 137 selected individual scFvs from the library, can be similarly tested by in vitro screening and/or by binding assay in mammalian cells.

binding to PTP1B-OX in vitro (PTP1B-OX)	binding to PTP1B under reducing condition in vitro [1]	binding of intrabody to endogenous PTP1B-OX (endogenous PTP1B-OX)	Molecule
no significant binding	no significant binding		B1
		bound weakly to PTP1B-OX	B2
		bound weakly to PTP1B-OX	B3
no significant binding	no significant binding		B4
no significant binding	no significant binding		B5
no significant binding	no significant binding		B6
		bound weakly to PTP1B-OX	B7
